Data published in paper PMC6895276 (Nucleic Acids Research, 2019).

T1: WT MutS (Escherichia coli, UniProt P23909 1-853)
T1 sequence (looked up): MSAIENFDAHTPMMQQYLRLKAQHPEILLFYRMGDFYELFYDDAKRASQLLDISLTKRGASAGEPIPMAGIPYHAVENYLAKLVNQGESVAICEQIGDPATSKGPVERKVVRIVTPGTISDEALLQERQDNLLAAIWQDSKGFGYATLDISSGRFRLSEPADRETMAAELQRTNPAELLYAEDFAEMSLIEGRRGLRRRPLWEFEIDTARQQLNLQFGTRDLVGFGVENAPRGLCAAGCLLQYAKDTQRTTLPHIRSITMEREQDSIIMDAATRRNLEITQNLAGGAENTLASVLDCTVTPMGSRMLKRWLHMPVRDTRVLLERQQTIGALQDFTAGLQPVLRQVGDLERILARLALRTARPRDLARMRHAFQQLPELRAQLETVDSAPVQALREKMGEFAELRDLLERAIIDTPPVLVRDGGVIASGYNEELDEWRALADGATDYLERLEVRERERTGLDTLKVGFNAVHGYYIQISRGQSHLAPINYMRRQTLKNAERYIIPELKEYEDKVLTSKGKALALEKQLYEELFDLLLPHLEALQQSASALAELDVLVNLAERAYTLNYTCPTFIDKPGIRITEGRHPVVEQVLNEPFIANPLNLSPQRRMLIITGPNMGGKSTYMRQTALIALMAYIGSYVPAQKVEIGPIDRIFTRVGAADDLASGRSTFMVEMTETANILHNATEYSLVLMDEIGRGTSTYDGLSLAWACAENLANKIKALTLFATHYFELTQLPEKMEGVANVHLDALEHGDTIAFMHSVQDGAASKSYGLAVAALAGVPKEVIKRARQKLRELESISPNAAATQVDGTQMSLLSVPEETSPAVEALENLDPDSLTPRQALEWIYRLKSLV


What was measured:
Test in all cases: SPR
[1] = molecular target: MutS STAB4 (Escherichia coli) (UniProt P23909)
[2] = molecular target: MutS STAB1 (Escherichia coli) (UniProt P23909)
[3] = molecular target: MutS STAB2 (Escherichia coli) (UniProt P23909)
[4] = molecular target: MutS STAB3 (Escherichia coli) (UniProt P23909)
[5] = molecular target: T1, WT MutS

Kd [1] [nM]	Kd [2] [nM]	Kd [3] [nM]	Kd [4] [nM]	Kd [5] [nM]	Molecule
11	18	16	17		MutL WT (from UniProt P23367 1-615) (natural protein)
				15	MutL WT (natural protein, UniProt P23367 1-615, looked up) MPIQVLPPQLANQIAAGEVVERPASVVKELVENSLDAGATRIDIDIERGGAKLIRIRDNGCGIKKDELALALARHATSKIASLDDLEAIISLGFRGEALASISSVSRLTLTSRTAEQQEAWQAYAEGRDMNVTVKPAAHPVGTTLEVLDLFYNTPARRKFLRTEKTEFNHIDEIIRRIALARFDVTINLSHNGKIVRQYRAVPEGGQKERRLGAICGTAFLEQALAIEWQHGDLTLRGWVADPNHTTPALAEIQYCYVNGRMMRDRLINHAIRQACEDKLGADQQPAFVLYLEIDPHQVDVNVHPAKHEVRFHQSRLVHDFIYQGVLSVLQQQLETPLPLDDEPQPAPRSIPENRVAAGRNHFAEPAAREPVAPRYTPAPASGSRPAAPWPNAQPGYQKQQGEVYRQLLQTPAPMQKLKAPEPQEPALAANSQSFGRVLTIVHSDCALLERDGNISLLSLPVAERWLRQAQLTPGEAPVCAQPLLIPLRLKVSAEEKSALEKAQSALAELGIDFQSDAQHVTIRAVPLPLRQQNLQILIPELIGYLAKQSVFEPGNIAQWIARNLMSEHAQWSMAQAITLLADVERLCPQLVKTPPGGLLQSVDLHPAIKALKDE
